Among the data in patent publication US20150224182A1 (UNIVERSITY OF VIRGINIA PATENT FOUNDATION, published 2015) are binding result and IC50 values, retold here.

Non-standard residues stand in square brackets, D forms with d. No end group written: not given here. pT = C[C@@H](OP(=O)(O)O)[C@H](N)C(=O)O; pS = N[C@@H](COP(=O)(O)O)C(=O)O

Experiment [1] deals with T1, HLA-B*0702 (human).
T1 construct: also called HLA-B7
As to the kind of experiment: HLA-B7 eluate MS; ALL1; 4 means >25 copies/cell.
Source text: (§1) The mixture was subjected to centrifugation and the resulting supernatant was passed over protein A sepharose pre-loaded with the HLA-A2-specific antibody BB7.2 or HLA-B7-specific antibody ME1. Peptides were eluted from the purified class I MHC molecules with 10% acetic acid.

In experiment [2] the target is T1, HLA-B*0702. As to the kind of experiment: HLA-B7 eluate MS; ALL1; 2 means 1-5 copies/cell.
Source text: as §1
The target of experiment [3] is T1, HLA-B*0702. As to the kind of experiment: HLA-B7 eluate MS; ALL1; 3 means 6-25 copies/cell.
Source text: as §1
Experiment [4] has as its target T1, HLA-B*0702. As to the kind of experiment: HLA-B7 eluate MS; AML1; 4 means >25 copies/cell.
Source text: as §1
In experiment [5] the target is T1, HLA-B*0702. As to the kind of experiment: HLA-B7 eluate MS; AML1; 2 means 1-5 copies/cell.
Source text: as §1
Experiment [6] concerns the target T1, HLA-B*0702. As to the kind of experiment: HLA-B7 eluate MS; AML1; 1 means <1 copy/cell.
Source text: as §1
For experiment [7], the target named is T1, HLA-B*0702. As to the kind of experiment: HLA-B7 eluate MS; ALL1; 1 means <1 copy/cell.
Source text: as §1
Experiment [8] concerns the target T2, HLA-A*0201 (human).
T2 construct: also called HLA-A2
As to the kind of experiment: competition with iodinated [..] for purified HLA-A*0201 plus β2M, capture on W6/32 plates.
Procedure: Peptide-MHC complexes were captured in W6/32-coated ELISA plates after 48 hours and the dose at which test peptides inhibited binding of the indicator peptide by 50% (IC₅₀) was calculated.

In experiment [9] the target is T2, HLA-A*0201. As to the kind of experiment: MS of HLA-A*0201 (BB7.2) eluate; cultured melanocytes; ++ means 5-50 copies/cell.
Experiment [10] has as its target T3, HLA B*0702 (human).
T3 construct: Class I MHC molecule of the cells from which the associated phosphopeptides were detected; also called HLA-B7
As to the kind of experiment: MS of peptides eluted from HLA; L/M column: L/M.

Regarding RPQRA[pT]SNVF [MYL9 phosphopeptide RPQRAtSNVF], the binding result in experiment [1] is reported as “binds”.

B1: GRK2 phosphopeptide KPRsPVVEL (peptide)
peptide: KPR[pS]PVVEL
notes: also called Beta-Adrenergic receptor kinase 1
Turning to B1, the binding result in experiment [2] was “binds”.
With RPA[pS]PAAKL [KIAA1310 phosphopeptide RPAsPAAKL], the binding result in [2] is given as “binds”.
With KPP[pT]PGASF [SPEN phosphopeptide KPPtPGASF], the binding result in [3] is given as “binds”.
In the case of SPRR[pS]RSISL [SFRS7 phosphopeptide SPRRsRSISL], the binding result in [4] was “binds”.
For RPR[pS]PTGP[pS]NSF (also called Splicing factor 45) [RBM17 phosphopeptide RPRsPTGPsNSF], the binding result in [5] is given as “binds”.
In the case of FSI[pS]PVRL [SON phosphopeptide FSIsPVRL], the binding result in experiment [1] is on record as “binds”.
RPR[pS]PTGP (also called Splicing factor 45) [RBM17 phosphopeptide RPRsPTGP]: in experiment [4], the binding result was “binds”.
On to RPP[pS]PGPVL [SCAP phosphopeptide RPPsPGPVL], for which the binding result in experiment [2] is listed as “binds”.
In the case of RPKLS[pS]PAL [EP300 phosphopeptide RPKLSsPAL], the binding result in [6] is listed as “binds”.
The same measure, in the same setting: the value for LPA[pS]PRARL [MAP7D1 phosphopeptide LPAsPRARL] was “binds”.
Take SPSTSRSGG[pS]SRL [C1orf63 phosphopeptide SPSTSRSGGsSRL]: the binding result in experiment [6] is “binds”.
Take TPAQPQRR[pS]L [TPX2 phosphopeptide TPAQPQRRsL]: the binding result in [7] is listed as “binds”.
Regarding RPA[pS]AGAML [MEF2D phosphopeptide RPAsAGAML], the binding result in [1] is given as “binds”.
Consider RPV[pT]PVSDL [KLF10 phosphopeptide RPVtPVSDL], for which, in experiment [1], the binding result is on record as “binds”.

B2: pS33-βcat30 (YLD(pS)GIHSGA, β-catenin 30-39 with phosphoserine 33) (peptide)
peptide: YLD[pS]GIHSGA
notes: also called pS33-βcatenin30-39; YLDsGIHSGA
On to B2, for which, in experiment [8], the half-maximal inhibitory concentration (IC50) (as a rule, the midpoint of a concentration-inhibition curve) came out at 0.327 µg/mL.
On to VPR[pS]PKHAHSSSL (also called Supervillin) [SVIL phosphopeptide VPRsPKHAHSSSL], for which the binding result in experiment [6] is reported as “binds”.

B3: β-Synemin phosphopeptide RTFpSPTYGL (peptide)
peptide: RTF[pS]PTYGL
notes: also called SYNM; pS429-β-Synemin426-434
Consider B3, for which, in [9], the binding result was “binds”.
As for YQR[pS]FDEVEGVF [GIGYF2 phosphopeptide YQRsFDEVEGVF], the binding result in [5] is on record as “binds”.
With KPPYRSH[pS]L [CCDC45 phosphopeptide KPPYRSHsL], the binding result in experiment [6] was “binds”.
For the molecule KPY[pS]PLASL [NFATC2 phosphopeptide KPYsPLASL], in experiment [2], the binding result is recorded as “binds”.
Take RLL[pS]PLSSA (also called RAVER1) [phosphopeptide RLLpSPLSSA (source protein Unknown in Table 5)]: in experiment [9], the binding result is listed as “binds”.
For RPR[pS]PAARL [ZNF219 phosphopeptide RPRsPAARL], the binding result in experiment [6] is “binds”.
Regarding RPA[pS]ARAQPGL [RPAsARAQPGL], in [10], the binding result is given as “binds”.
Consider EPKRR[pS]ARL [HMGN1 phosphopeptide EPKRRsARL], for which the binding result in [6] is on record as “binds”.
With RRS[pS]LDAEIDSL [LPP phosphopeptide RRSsLDAEIDSL], the binding result in [6] is “binds”.
Still for that read-out and setting: the value for SPEKAGRR[pS]SL [CCDC88B phosphopeptide SPEKAGRRsSL] was “binds”.
Take RPQRAT[pS]NVF [MYL9 phosphopeptide RPQRATsNVF]: the binding result in experiment [5] is recorded as “binds”.
Turning to RPR[pS]PSPIS [GRM5 phosphopeptide RPRsPSPIS], in experiment [5], the binding result is “binds”.
Turning to KPPH[pS]PLVL [MYC phosphopeptide KPPHsPLVL], the binding result in experiment [1] is recorded as “binds”.
RPP[pS]SEFLDL [RERE phosphopeptide RPPsSEFLDL]: the binding result in [3] is “binds”.
As for RPR[pS]LEVTI (also called Pyrin) [MEFV phosphopeptide RPRsLEVTI], the binding result in [6] is “binds”.
On to TPI[pS]PGRASGM [RUNX1 phosphopeptide TPIsPGRASGM], for which the binding result in [7] was “binds”.
For RRK[pS]QVAEL [MKI67IP phosphopeptide RRKsQVAEL], the binding result in experiment [4] was “binds”.

B4: pS33/S37-βcat30 (doubly phosphorylated β-catenin 30-39) (peptide)
peptide: YLD[pS]GIH[pS]GA
notes: also called pS33/pS37-βcat30; pS33/37-βcat30
Consider B4, for which the concentration for half-maximal inhibition (IC50) in [8] turned out to be 0.678 µg/mL.
Regarding FRR[pS]PTKSSL [RBM14 phosphopeptide FRRsPTKSSL], in [5], the binding result was “binds”.
As for SPR[pS]PSTTYL [CHAF1A phosphopeptide SPRsPSTTYL], the binding result in [5] is given as “binds”.
As to RPR[pS]PGSNSKV [GTF2IRD1 phosphopeptide RPRsPGSNSKV], the binding result in experiment [6] was “binds”.
For the molecule RPY[pS]PPFFSL [FAM53C phosphopeptide RPYsPPFFSL], the binding result in experiment [2] was “binds”.
Turning to RSL[pS]PLLF [VPS13D phosphopeptide RSLsPLLF], in experiment [2], the binding result was “binds”.
With SPGLARKR[pS]L [ZFP106 phosphopeptide SPGLARKRsL], the binding result in experiment [6] is listed as “binds”.
Regarding KPA[pS]PKFIVTL [ZC3H14 phosphopeptide KPAsPKFIVTL], the binding result in experiment [5] was “binds”.
Take KPP[pS]PEHQSL [MORC2 phosphopeptide KPPsPEHQSL]: the binding result in experiment [7] was “binds”.
Turning to FRR[pS]PTKSSLDY [RBM14 phosphopeptide FRRsPTKSSLDY], the binding result in experiment [4] is “binds”.
As to RPSRS[pS]PGL [SYNPO phosphopeptide RPSRSsPGL], the binding result in experiment [5] was “binds”.
Consider RQD[pS]TPGKVFL (also called NR2C1) [Nuclear hormone receptor TR2 phosphopeptide RQDpSTPGKVFL], for which the binding result in experiment [9] was “binds”.
Take RPD[pS]RLGKTEL [SETD2 phosphopeptide RPDsRLGKTEL]: in experiment [2], the binding result was “binds”.
For the molecule KPA[pS]PARRL [MAP1A phosphopeptide KPAsPARRL], the binding result in experiment [7] is given as “binds”.
RPV[pS]PFQEL [phosphopeptide RPVsPFQEL (no gene name in Table 7; no database hit)]: the binding result in experiment [3] was “binds”.
For the molecule RPRAN[pS]GGVDL [RREB1 phosphopeptide RPRANsGGVDL], in experiment [5], the binding result is given as “binds”.
For the molecule SPS[pS]PSVRRQL [ANKRD17 phosphopeptide SPSsPSVRRQL], in experiment [5], the binding result is listed as “binds”.
Turning to RPR[pS]AVLL [AKAP13 phosphopeptide RPRsAVLL], in [5], the binding result is on record as “binds”.
As to RPAK[pS]MDSL [ARHGAP30 phosphopeptide RPAKsMDSL], the binding result in experiment [2] is recorded as “binds”.
Regarding RPKPSS[pS]PV [PCBP2 phosphopeptide RPKPSSsPV], the binding result in [2] is “binds”.
As for RQI[pS]QDVKL (also called AMPD2) [Adenosine monophosphate deaminase 2 phosphopeptide RQIpSQDVKL], in experiment [9], the binding result is “binds”.
Regarding KPR[pS]PVVEL [KPRsPVVEL], the binding result in [10] is “binds”.
In the case of RPRPH[pS]APSL [MIIP phosphopeptide RPRPHsAPSL], the binding result in experiment [5] is “binds”.
With YQR[pS]FDEVEGV [GIGYF2 phosphopeptide YQRsFDEVEGV], the binding result in experiment [6] is reported as “binds”.
Regarding RAP[pS]PSSRM [SRRM2 phosphopeptide RAPsPSSRM], in experiment [1], the binding result is given as “binds”.
